Experimental data as given in publication PMC11338361.

Molecular target: HA-DGAT2 (hemagglutinin-tagged tung tree DGAT2) (Vernicia fordii (tung tree)) (UniProt Q0QJH9)
Assay: SDS-PAGE and immunoblotting of microsomal membranes

Substance: HA-DGAT2 (hemagglutinin-tagged tung tree DGAT2) (from UniProt Q0QJH9 2-322) (enzyme)
- stoichiometry N: 2
